Where “and” joins values, the source holds several entries; their conditions need not be identical. Equal values may be shown once.

Series [1] is described as follows: REES of NEMO W6 Trp emission: native, denatured, crowded. The class given is physicochemical. The following applies: for R0: y-intercept of Eq 2 fit. The method, then:
Typically the magnitude of the steady-state REES phenomenon is reported as the simple difference in CSM or ΔλEm^max. From FIG. 1, it is observed that a significant red shift in the emission spectra, with an increase in CSM of 17.7 nm and an increase in ΔλEm^max of 15 nm from λex 292-310 nm. Essentially the data are treated by the linear function: CSM=Rλex+CSM0 Eq 1.
Where R is the REES magnitude expressed as the change in CSM per nm of the excitation wavelength, λex.
The REES data in FIG. 2 can be best represented by a Gaussian probability distribution of the form:
Where A is the area, w is the full width at half-maximal (fwhm), m is the mid-point and R0 is the y-intercept and m=λREES^max, where λREES^max is the excitation wavelength that gives the largest change in the emission peak wavelength. The data in FIG. 2 are fit to Eq 2 and illustrate the low energy excitation at the red edge of the protein absorption spectrum. The fit of Eq 2 to the experimental data is excellent and captures the expected relationship described above.
In this case, the solvent relaxation will be very rapid and no REES effect observed, effectively because there is one discrete solvation state (fully solvated). NEMO is incubated in 6M guanidine to denature the protein and the corresponding change in the center of spectral mass (CSM) versus λex is shown in FIG. 3. The use of CSM is favoured instead of the magnitude of ΔλEm^max as this metric gives a more robust REES signal and the magnitude of may be highly error prone. However the results using ΔλEm^max are essentially the same. A decrease and red-shift in Trp emission is typically grossly correlated with denaturation of proteins. […] Note that this is not the REES effect but reflective of the solvent exposure of NEMO W6 on denaturation. […] Fitting to Eq 2 also gives a large decrease in the REES effect, A=0.37±0.4. The relative change in the REES effect is similar using either approach and this indicates strongly that a fitting approach using Eq 2 is robust.
Macromolecular crowding is a key feature of the intracellular milieu arising from the very high concentrations of other species in the cytosol. Crowding reduces the available solvent for other molecules in solution through the excluded volume effect, which effectively increase the concentration of, for example, protein and restricts the accessible conformational states through hard-core repulsions between the crowding agent and the protein. Macromolecular crowding can alter protein conformation, typically inducing folding and stabilization. Crowding therefore potentially provides a means to explore the contrasting physical effect of denaturation on the REES effect, where the protein is more folded/stabilized. A protein has been used as the crowding agent, Sbi (reported above), instead of a synthetic crowding agent since protein is much more consistent with the intracellular environment. […] Incubating NEMO with a high concentration of Sbi (20 mg/ml) gives a dramatic change to the both the absolute Trp emission and also the REES effect as shown in FIG. 3. […] Intriguingly, the REES effect is much larger in the crowded environment giving a relative increase in A of 2.24±0.51. […] This is consistent with the putative molecular model of NEMO activity that is based on allosterically regulated NEMO conformational change. Below, the potential mechanistic role of an increased number of available conformational states with respect to ligand interactions is described.
Full length human NEMO was expressed and purified essentially as described previously. Purified protein was dialysed extensively into a buffer comprising 50 mM Tris-Cl pH 8.0, 50 mM NaCl and 5 mM DTT. All measurements were made in this buffer unless otherwise stated. IKK-β and IκBα peptides were commercially synthesised by Genscript, having a purity of >98% and are of the sequence […] and […], respectively. […]

A short description of series [2]: High-pressure REES measurements. The class given is physicochemical. From the text:
The CSM value is rather larger than reported for the denaturation study above (FIGS. 3A and 3B) and this is due to a different spectral window used to calculate the CSM for the pressure studies. This was necessary due to the optical setup of the pressure cell. […] Fitting the REES data to Eq 4 gives the pressure dependence of A, shown in FIG. 4D as the change in the fraction of A across the pressure range. […] The pressure dependence data can be adequately fit to a simple, phenomenological model that implies a single transition between two states with changing hydrostatic pressure as used previously:
Where Rp=83.13 cm3 mol^−1 bar K^−1 when the pressure, p, is measured in bar, K0 is the equilibrium constant for the change in the relative population of the ith conformational state represented by the magnitude of A from Eq 4, extrapolated to 0 bar and ΔVA is the apparent difference in the volume associated with this equilibrium transition.
The difference in sign is simply attributable to relative change in direction of the specific to signal. What is important is that the magnitude of ΔV is much larger for the REES effect compared to W6 emission. Indeed, this magnitude of pressure dependence is more consistent with global metrics of NEMO conformational change previously measured using the pressure dependence of 8-anilino naphthalene sulfonate (ANS) emission. The REES signal may therefore be reflective of the broader equilibrium of NEMO conformational states at sites distal to W6. […] The key finding from the pressure data in the present context is that the REES effect itself is pressure-dependent with the magnitude of A increasing with pressure.
An ISS high-pressure cell (ISS, Champaign, UL, USA), fitted with a custom fiber optic mounting to the fluorimeter and connected to a circulating water bath for temperature regulation was used to record all high-pressure measurements.
Where fi is the measured fluorescence intensity and λem is the emission wavelength. The importance of using a consistent wavelength range when reporting CSM data is stressed, as the magnitude will be dependent on the wavelength range chosen.

The conditions of series [3]: pressure dependence of emission, ref [23]; cited from earlier work.
The conditions of series [4]: previously found; cited from earlier work.
The nature of series [5]: QUBES values of native mAbs. The following applies: native mAb. Format: physicochemical. From the text:
First, the combined excitation and emission spectrum is monitored for each mAb giving a high information content fluorescence data set (FIG. 13A). […] A simpler exponential function is fitted, CSM=CSM0+Ae^RΔλ^Ex Eq 1.
Where CSM0 is the CSM value independent of the excitation wavelength, λEx, determined by the amplitude, A, of an exponential with a curvature determined by R. Fitting with this function instead of a Gaussian or other probability distribution dramatically improves the speed of data processing due to the lower dimensionality of the model but still retains the key aspects of the previous model, namely quantification of the magnitude of the fluorescence edge-shift. The plot of the resulting parameters yields a single three-dimensional data point (FIG. 13B, inset; the QUBES value), which is a direct quantification of the extremely complex spectral fingerprint shown in FIG. 13A.
All fluorescence measurements were performed using a Perkin Elmer LS50B Luminescence Spectrometer (Perkin Elmer, Waltham, Mass., USA) connected to a circulating water bath for temperature regulation (±1° C.). […] Tryptophan emission was monitored from 325 to 500 nm. […] The centre of spectral mass (CSM) was calculated using the following equation: […]
Where fi is the measured fluorescence intensity and Δem is the emission wavelength. […]

Series [6] is described as follows: QUBES of mAb unfolding in urea. Format: physicochemical. The method, then: Changes in protein structure are accompanied by a change in the equilibrium of conformational states. It has been previously found with a model system, a ‘hub’ protein (described above), that by quantitating the curvature in REES data it is possible to capture information on unfolded states and ligand induced conformational change. It was explored whether the sensitive detection of differences in REES data could be useful for detecting subtle changes in protein structure in mAbs. It is tested whether the QUBES data can be used to identify unfolding and aggregation of the mAbs since these are key issues facing the development of biopharmaceuticals. […] The formation of soluble aggregates is monitored in the thermally denatured mAbs by dynamic light scattering (DLS), shown in FIG. 19.
The observed variance in the QUBES values for the denatured mAbs (FIG. 14A) may reflect the differing extent of unfolding or aggregation for each of the samples and the specific nature of the unfolded or aggregated states. […] The data therefore illustrate that these metrics ignore early stage changes to protein structure that are not captured by simple steady-state fluorescence emission measurements.
All fluorescence measurements were performed using a Perkin Elmer LS50B Luminescence Spectrometer (Perkin Elmer, Waltham, Mass., USA) connected to a circulating water bath for temperature regulation (±1° C.). […]

With “NEMOnative: Full length human NF-κB essential modulator; W6 is its single intrinsic Trp residue”, the “R (fit to Eq 1), change in CSM per nm of λex” value in series [1] (absolute value) was determined as 0.96. For the same substance, the “A (REES magnitude, fit to Eq 2)” value in series [1] (relative to NEMO alone, native, denatured (6M guanidine), crowded (Sbi 20 mg/ml)) came out at 1 ± 0.1. Besides, in series [1] (relative to NEMO alone, native, denatured, crowded), the “R (fit to Eq 1), relative” value turned out to be 1 ± 0.13. The same substance registered an R0 in series [1] (native, denatured, crowded) of 363.2 ± 0.19 nm. Moreover, the R0 in series [1] (native, denatured, crowded, listed as NEMO) is 363.2±0.19 nm. The R0 in series [1] (native, denatured, crowded, listed as native NEMO) came to 363.2±0.19 nm. Besides, in series [1] (λex 292-310 nm), the “increase in CSM (red shift)” value stood at 17.7 nm and the “increase in ΔλEm^max” value was 15 nm. Moreover, the “ΔλEm^max” value in series [2] (10° C., 1 bar, λex=295 nm) stood at 348 nm. In addition, in series [2] (λex=292 nm), the “increase in W6 CSM with increasing pressure” value worked out at 3.0 nm. Besides, the “increase in CSM from 1 to 2000 bar” value in series [2] (λex=310 nm) was 8.9 nm. Further, the “ΔV for W6 (Trp) emission” value in series [3] was 0.81 cm3 mol^−1 and ~1.6±0.4 cm3 mol^−1. Also, in series [4], the random coil content is listed as approximately 40% and the α-helical content is recorded as approximately 50%.

In the case of Nivolumab: human therapeutic mAb, the “QUBES value (A, R), predicted rigidity/flexibility” value in series [5] was “high A and small R value”.

As to Pertuzumab: humanised therapeutic mAb, the “QUBES value (A, R), predicted rigidity/flexibility” value in series [5] is “small A and high R value”.

As for Tocilizumab: humanised therapeutic mAb, in series [6], the “urea concentration at which a significant increase in CSM0 is observed” value was 7 M. In series [6] (urea), the “QUBES value shift on unfolding” value is “larger R and smaller A value”.

The values above are taken from patent US10900903B2, “Protein structure analysis based on red-edge excitation shift (REES) spectroscopy” (UNIVERSITY OF BATH, priority 2016, dated 2021).
